Measurements: the nanobody polyreactivity screen of Harvey et al. (2022)

Assay: yeast display, Sf9 membrane polyspecificity reagent, FACS + sequencing; frameworks hold sequencing errors
How it was run: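 After 36–48 hours of galactose induction, yeast (Saccharomyces cerevisiae BJ5465) displaying a synthetic nanobody library were stained at 4 °C for 1 hour with 10% biotinylated, detergent-solubilized Sf9 membrane reagent. Streptavidin microbeads enriched the stained cells before FACS sorting into low and high (top ~1%) gates on anti-HA and streptavidin fluorescence. Each clone's polyreactivity label reflects its gate of origin.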

Sequence	polyreactivity (PSR sort gate)
QVQLVESGGGLVQAGGSLRLSCAASGFSYRYYAMGWYRQAPGKERELVAAISSRGGSTYYADSVKGRFTISRDNATNTVYLQMNSLKPEDTAVYYCAADHGDPGGYDYWGQGTQVTVSS	high polyreactivity
QVQLVESGGGLVQAGGSLRLSCAASGRIFGKYPMGWYRQAPAKERELVAAIRITGGSTYYADSVKGRFTISRDNAKNTVYLQMNSLKPEDTAVYYCAAVYKYADVIYDYWGQGTQVTVSS	high polyreactivity
QVQLVESGGGLVQAGGSLRLSCAASGAIFRGYAMGWYRQAPGKERELVATITRRCGSTYYADSVKGRFTISRDNAKNTVYLQMNSLKPEDTAVYYCNARLTFLSSWLGKLQWGYDYWGQGTQVTVSS	low polyreactivity
QVQLVESGGGLVQAGGSLRLSCAASGNIFKYYTMRWYRQAPGKERELVAAITSGGRTNYADSVKGRFTISRDNAKNTVYLQMNSLKPEDTAVYYCAAYDVIYSQGFDYWGQGTQVTVSS	low polyreactivity
QVQLVESGGGLVQAGGSLRLSCAASGRTFWPNVMGWYRQAPGKERELVAAITWGDASTYYADSVKGRFTISRDNAKNTVYLQMNSLKPEDTAGYSCAASDYRSTYDYWGQGTQVTVSS	low polyreactivity
QVQLVESGGGLVQAGGSLRLSCAASGSTFNRYAMGWYRPAPGKDRELVAAISASGGSTYYADSVKGRFRISRDNAKNTVYLQMNSLKPEDTAVYYCATLHYVGQEHDYWGQGTQVTVSS	low polyreactivity
QVQLVESGGGLVQAGGSLRLSCAASGFIFRNYAMGWYRQAPGKERELVAAIDSSGGSTYYADSVKGRFTISRDNAKNTVYLQMNSLKPEDTAVYYCAAESYYYQYEYWGQGTQVTVSS	high polyreactivity
QVQLVESGGGLVQAGGSLRLSCAASGSIFAYYAMGWYRQAPGKERELVAAISGTGGSTNYADSVKGRFTISRDNAKNTVYLQMNSLKPEDTAVYYCAKDYSFQWRNEFNLAGEYDYWGQGTQVTVSS	low polyreactivity
QVQLVESGGGLVQAGGSLRLSCAASGRTIVYYAMGRYRQAPGKERELVAAISSSGSTYYADSVKGRFTISRDNAKNTVYLQMNSLKPEDTAVYYCATTHDYWLWGMGYWGQGTQVTVSS	high polyreactivity
QVQHVESGGGLVQAGGSLRLSCAASGYTFPLYAMGWYRQAPGKEREFVAAISKRSGTTYYADSVKGRFTISRDNAKNTVYLQMNSLKPEDTAVYYCNAGYSVYNQRFGYWGQGTQVTVSS	high polyreactivity
QVQLLESGGGLVQAGGSLRLSCAASGRTIRNNTMGWYRQAPGKERELVARITWSGGSTYYADSVKGRFTISRDNAKNNVYLKMNRLKQEDTAVYYCAAVPILVYLWFQSYTGDYDYWGQGTQVTVSS	low polyreactivity
QVQLVESGGGLVQAGGSLRLSCAASGFISARYAMGWYRQAPGKERELVAGISGGGGRTYYADSVKGRFTISRDNAKNTVYLQMNSLKPEDTAVYYCASTQQSRDRRFNYWGQGTQVTVSS	high polyreactivity
QVQLVDSGGGLVQAGGILRLSCAASGFIFKKNAMGWYRQAHGKEREFVAAITSSGGSTYYADSVKGRFTISRDNAKNTVYLQMNSLKPEDTAVYFCARGTSWWRSRSITFTYDYWGQGTQVTVSS	high polyreactivity
QVQLVESGGGLVQAGGSLRLSCAASGSTFDDNVMGWYRQAPGKERELVASSTSGGGTNYADSVKGRFTISRDNAKNTVYLQMKSLKPEDTAVYYCAARTQGRRLDYGYWGQGTQVTVSS	low polyreactivity
QVQLVESGGGLVQAGGSLRLSCAASGSIFKYYAMGWYRQAPGKERELLADISFGGDSTYYADSVKGRFTISRDNAKNTVYLQMNSLIPEDTAVYYCAAAPYFWFVEYDYWGQGTQVTVSS	low polyreactivity
QVQLVESGGGLVQAGGSLRLSCAASGSIFSGNEMAWYRQAPGKERELVAAISSNGGRTYYADSVKGRFTISRDNEKNTVYLQMNSLKPEDTAVDYCAADSGKRRYGYYYWGQATQVTVSS	high polyreactivity
QVQLVESGGGLVQAGGSLRLSCAASGRIFGRYAMGWYRQAPGKERELVASITRRGGSTYYADSVKGRFTISRDNAKNTVYLQMNSLKPEDTAVYYCAAGGFSWEGDSWGQGTQVTVSS	high polyreactivity
QVQLVESGGGLVQAGGSLRLSCAASGSIFTQNAMGWYRQAPGKERALVAAMSSGGSTNDADSVKGRFTISRDNAKNTVYLQMNSLTPEDTAVDYCAKSIDGWYWRRRRYDYWGQGTQVTVSS	low polyreactivity
QDQLVESGVGLVQAGGSLRLSCAASGSTFYYYAMGWYRQAPGKERELVAAITSDGSTNYADSVKGRFTISRDNAKNTVYLQMNSLKTEDTAVYYCAKTYYWGYDWGQGTQVTVSS	low polyreactivity
QVQLVESGGGLVQAGGSLSLSCAASGFIFYRYAMGWYRQAPGKERELVAAITSGGSTKYADSVKGRFTISRDNAKNTVYLQMNSLKPEYTAVYYCAADPFDWFSYYYWGQGTQVTVSS	low polyreactivity
QVQLVESGGGLVQAGGSIRLSCAASGSIVVSYAMGWYRQAPGKERELVAAITVSGGSTYYADSVKGRFTISRDNAKNTVYLQMNSLKPEDTAVYYCAADSWDDWVVEFYYWGQGTQVNVSS	low polyreactivity
QVQLVESGGGLVQAGGSLRLSCAASGSIFTSYAMGWYRQAPGKERELVAGIDWSGGGTYYADSVKGRFTISRDNAKNTVYLQMNSLKPEDTAVYYCNADGPYTRYGPVDYWGQGTQVTVSS	low polyreactivity
